According to patent US20220324959A1 (Janssen / Centocor, published 2022):

B1: TNV148 (antibody, human IgG1, kappa, V domains shown)
VH: QVQLVESGGGVVQPGRSLRLSCAASGFIFSSYAMHWVRQAPGNGLEWVAFMSYDGSNKKYADSVKGRFTISRDNPKNTLYLQMNSLRAEDTAVYYCARDRGIAAGGNYYYYGMDVWGQGTTVTVSS
VL: EIVLTQSPATLSLSPGERATLSCRASQSVYSYLAWYQQKPGQAPRLLIYDASNRATGIPARFSGSGSGTDFTLTISSLEPEDFAVYYCQQRSNWPPFTFGPGTKVDIKR
notes: Hybridoma-derived fully human IgG1 kappa, tested as hybridoma supernatant; also called GenTNV148.26.12; C420A
B2: TNV86 (antibody, human IgG1, kappa, V domains shown)
VH: QVQLVESGGGVVQPGRSLRLSCAASGFIFSSYAMHWVRQAPGNGLEWVAFMSYDGSNKKYADSVKGRFTISRDNPKNTLYLQMNSLRAEDTAVYYCARDRGIAAGGNYYYYGMDVWGQGTTVTVSS
VL: EIVLTQSPATLSLSPGERATLSCRASQSVYSYLAWYQQKPGQAPRLLIYDASNRATGIPARFSGSGSGTDFTLTISSLEPEDFAVYYCQQRSNWPPFTFGPGTKVDIKR
notes: Hybridoma-derived fully human IgG1 kappa, tested as hybridoma supernatant; Identity is stated for the variable regions only; also called GenTNV86.14.34; C417A

Tests used:
[1] = biological target: T1, recombinant human TNFα (human, UniProt P01375 77-233, 125I label in the receptor blocking assay); assay: cell-based or functional assay
[2] = biological target: T1, recombinant human TNFα; assay: inhibition of 125I-TNFα binding to plate-coated p55-sf2, hybridoma supernatant
Procedure: (§1) 50:1 of p55-sf2 at 0.5:g/ml in PBS was added to Optiplates to coat the wells during a one-hour incubation at 37° C. Serial dilutions of the eight TNV cell supernatants were prepared in 96-well round-bottom plates using PBS/0.1% BSA as diluent. […] The mixture was preincubated for one hour at RT. The coated Optiplates were washed to remove unbound p55-sf2 and 50:1 of the ¹²⁵I-TNFα/cell supernatant mixture was transferred to the Optiplates. After 2 hrs at RT, Optiplates were washed three times with PBS-Tween. […] of Microscint-20 was added and the cpm bound determined using the TopCount gamma counter.
A simple binding assay was done to determine whether the eight TNV mAbs contained in hybridoma cell supernatant were capable of blocking TNFα binding to receptor. The concentrations of the TNV mAbs in their respective cell supernatants were first determined by standard ELISA analysis for human IgG.

[3] = biological target: T1, recombinant human TNFα; assay: competition radioligand assay: mAb in hybridoma supernatant preincubated with 5 ng/ml 125I-TNFα, then binding of 125I-TNFα to plate-coated p55-sf2 (TNF receptor/IgG fusion) counted as cpm bound
Procedure: Varying amounts of hybridoma cell supernatants containing known amounts of TNV mAb were preincubated with a fixed concentration (5 ng/ml) of ¹²⁵I-labeled TNFα. […] The amount of TNFα that bound to the p55 receptor in the presence of the mAbs was determined after washing away the unbound material and counting using a gamma counter. Although eight TNV mAb samples were tested in these experiments, for simplicity three of the mAbs that were shown by DNA sequence analyses to be identical to one of the other TNV mAbs (see Section 5.2.2) are not shown here. Each sample was tested in duplicate. The results shown are representative of two independent experiments.
as §1

Binder | neutralizing TNFα bioactivity [1] [fold] | fold better at blocking TNF binding (against TNV118 and TNV14) [2] [fold] | IC50 (read off the curve) [3] [ng/mL]
B1 | 4 | ~4 | ~4
B2 | – | ~4 | –
